Consider 34 molecules from patent US9187525B2, “Methods of treating ophthalmic diseases using NPR-B agonists” (Shire Orphan Therapies GmbH, dated 2015).

Numbered stars: 1 amine (or outer) side, 2 acyl side, 3 side chain; on linkers, the order of the positions; unused ones are H or OH. Square brackets hold non-standard residues; d marks the D form. Ends that are not written are not given here. * marks the point of attachment. Ebe = (R)-2-amino-3-(methylsulfanyl)propanoic acid, CSC[C@H](N[*:1])C(=O)[*:2]; Sni = (S)-nipecotic acid, O=C([C@H]1CCCN([*:1])C1)[*:2]; Phe(3-CF3) = N[C@@H](Cc1cccc(C(F)(F)F)c1)C(=O)O; Azetidine3carboxylic = O=C(C1CN([*:1])C1)[*:2]; Phe(4-Cl) = N[C@@H](Cc1ccc(Cl)cc1)C(=O)O; Phe(3-Me) = Cc1cccc(C[C@H](N)C(=O)O)c1; Hyp = O=C(O)[C@@H]1C[C@@H](O)CN1; NMeF = CN[C@@H](Cc1ccccc1)C(=O)O; 2Thi = N[C@@H](Cc1cccs1)C(=O)O; 3Thi = N[C@@H](Cc1ccsc1)C(=O)O; NMeL = CN[C@@H](CC(C)C)C(=O)O; Tle = CC(C)(C)[C@H](N)C(=O)O; hLeu = CC(C)CC[C@H](N)C(=O)O; dNle = CCCC[C@@H](N)C(=O)O; dNva = CCC[C@@H](N)C(=O)O; hSer = N[C@@H](CCO)C(=O)O; Octanoyl = CCCCCCCC(=O)*; Thz = O=C(O)[C@@H]1CSCN1; dAbu = CC[C@@H](N)C(=O)O; dDap = NC[C@@H](N)C(=O)O; Nva = CCC[C@H](N)C(=O)O; Hexanoyl = CCCCCC(=O)*; asn = not defined here; leu = not defined here; nle = not defined here; Occ = octanoic acid

The assay addresses T1, natriuretic peptide receptor-B (human).
T1 chain: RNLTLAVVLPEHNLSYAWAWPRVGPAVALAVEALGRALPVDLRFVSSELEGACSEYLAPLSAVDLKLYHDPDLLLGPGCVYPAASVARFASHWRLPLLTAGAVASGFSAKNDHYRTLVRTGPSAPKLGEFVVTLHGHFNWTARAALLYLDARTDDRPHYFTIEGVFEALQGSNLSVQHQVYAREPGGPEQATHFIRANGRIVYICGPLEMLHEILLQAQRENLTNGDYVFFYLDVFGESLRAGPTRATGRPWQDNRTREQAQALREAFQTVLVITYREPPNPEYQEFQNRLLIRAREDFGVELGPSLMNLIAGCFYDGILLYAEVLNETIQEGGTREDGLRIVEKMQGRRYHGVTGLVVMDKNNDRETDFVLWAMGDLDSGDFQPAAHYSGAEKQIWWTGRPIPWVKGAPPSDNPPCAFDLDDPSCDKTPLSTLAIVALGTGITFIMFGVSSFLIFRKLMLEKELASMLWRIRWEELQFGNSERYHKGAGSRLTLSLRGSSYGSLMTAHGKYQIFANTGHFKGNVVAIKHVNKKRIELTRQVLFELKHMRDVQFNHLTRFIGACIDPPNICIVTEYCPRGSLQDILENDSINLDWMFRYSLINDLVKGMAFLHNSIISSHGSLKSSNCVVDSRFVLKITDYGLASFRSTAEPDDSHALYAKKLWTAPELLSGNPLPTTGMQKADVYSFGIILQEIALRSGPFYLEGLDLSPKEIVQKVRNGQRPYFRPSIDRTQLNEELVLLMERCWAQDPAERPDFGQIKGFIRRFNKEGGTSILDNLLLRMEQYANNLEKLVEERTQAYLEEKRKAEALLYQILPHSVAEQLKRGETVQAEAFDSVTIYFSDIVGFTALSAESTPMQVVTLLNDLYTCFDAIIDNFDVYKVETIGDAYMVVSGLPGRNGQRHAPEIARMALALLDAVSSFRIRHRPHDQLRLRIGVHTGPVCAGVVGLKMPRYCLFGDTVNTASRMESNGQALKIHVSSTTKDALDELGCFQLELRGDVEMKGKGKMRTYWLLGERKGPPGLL
Nature of the assay: cell-based or functional assay.

B1: JAL-1012 (peptide)
peptide: [Occ]AFVLPLDRI-NH2
modifications: not fully specified (residues 2, 4); printed as Occ-ala-Phe-val-Leu-Pro-Leu-Asp-Arg-Ile-NH2
For B1, the “EC50 group, cGMP in GTM-3 cells” value was not above 15 µM.

B2: JAL-1002 (peptide)
peptide: [Occ]A[Phe(4-Cl)]GLPLDRI-NH2
modifications: not fully specified (residue 2); printed as Occ-ala-Pcf-Gly-Leu-Pro-Leu-Asp-Arg-Ile-NH2
Regarding B2, the “EC50 group, cGMP in GTM-3 cells” value was not above 15 µM.

B3: JAL-0993 (peptide)
peptide: [Occ]AFGLPL[hSer]RI-NH2
modifications: not fully specified (residue 2); printed as Occ-ala-Phe-Gly-Leu-Pro-Leu-Hse-Arg-Ile-NH2
With B3, the “EC50 group, cGMP in GTM-3 cells” value was not above 15 µM.

B4: JAL-1020 (peptide)
peptide: Octanoyl-[dA]F[dDap]LPLDRI-NH2
B4: the “EC50 group, cGMP in GTM-3 cells” value was not above 5 µM.

B5: JAL-1013 (peptide)
peptide: [Occ]AF[leu]LPLDRI-NH2
modifications: not fully specified (residue 2); printed as Occ-ala-Phe-leu-Leu-Pro-Leu-Asp-Arg-Ile-NH2; reading uncertain
On to B5, for which the “EC50 group, cGMP in GTM-3 cells” value was not above 5 µM.

B6: JAL-1021 (peptide)
peptide: Octanoyl-[Sni]F[dNle]LPLDRI-NH2
For the molecule B6, the “EC50 group, cGMP in GTM-3 cells” value is not above 5 µM.

B7: JAL-1017 (peptide)
peptide: [Occ]AF[asn]LPLDRI-NH2
modifications: not fully specified (residue 2); printed as Occ-ala-Phe-asn-Leu-Pro-Leu-Asp-Arg-Ile-NH2; reading uncertain
For the molecule B7, the “EC50 group, cGMP in GTM-3 cells” value is not above 5 µM.

B8: JAL-0534 (peptide)
peptide: Hexanoyl-[Ebe][dP]FGLKIDRIS[Ebe]-NH2
As to B8, the “EC50 group, cGMP in GTM-3 cells” value is not above 15 µM.

B9: JAL-1003 (peptide)
peptide: [Occ]A[3Thi]GLPLDRI-NH2
modifications: not fully specified (residue 2); printed as Occ-ala-Thk-Gly-Leu-Pro-Leu-Asp-Arg-Ile-NH2
For the molecule B9, the “EC50 group, cGMP in GTM-3 cells” value was not above 15 µM.

B10: JAL-0985 (peptide)
peptide: [Occ][Azetidine3carboxylic]FGLPLDRI-NH2
B10: the “EC50 group, cGMP in GTM-3 cells” value was not above 15 µM.

B11: JAL-1019 (peptide)
peptide: Octanoyl-[dA]F[dAbu]LPLDRI-NH2
With B11, the “EC50 group, cGMP in GTM-3 cells” value was not above 5 µM.

B12: JAL-1005 (peptide)
peptide: [Occ]A[Phe(3-CF3)]GLPLDRI-NH2
modifications: not fully specified (residue 2); printed as Occ-ala-Mtf-Gly-Leu-Pro-Leu-Asp-Arg-Ile-NH2
Consider B12, for which the “EC50 group, cGMP in GTM-3 cells” value was not above 15 µM.

B13: JAL-1006 (peptide)
peptide: [Occ]A[Phe(3-Me)]GLPLDRI-NH2
modifications: not fully specified (residue 2); printed as Occ-ala-Mmf-Gly-Leu-Pro-Leu-Asp-Arg-Ile-NH2
B13: the “EC50 group, cGMP in GTM-3 cells” value is not above 15 µM.

B14: JAL-1015 (peptide)
peptide: [Occ][Sni]FGL[Hyp][NMeL]DRI-NH2
B14: the “EC50 group, cGMP in GTM-3 cells” value is not above 5 µM.

B15: JAL-1024 (peptide)
peptide: Octanoyl-[Sni]F[dNle]L[Hyp]LDRI-NH2
Turning to B15, the “EC50 group, cGMP in GTM-3 cells” value was not above 1 µM.

B16: JAL-0989 (peptide)
peptide: [Occ]AFGLPLDR[Tle]-NH2
modifications: not fully specified (residue 2); printed as Occ-ala-Phe-Gly-Leu-Pro-Leu-Asp-Arg-Tbg-
In the case of B16, the “EC50 group, cGMP in GTM-3 cells” value was not above 15 µM.

B17: JAL-1011 (peptide)
peptide: [Occ]AFTLPLDRI-NH2
modifications: not fully specified (residues 2, 4); printed as Occ-ala-Phe-thr-Leu-Pro-Leu-Asp-Arg-Ile-NH2
Consider B17, for which the “EC50 group, cGMP in GTM-3 cells” value was not above 5 µM.

B18: JAL-1018 (peptide)
peptide: Octanoyl-[dA]F[dM]LPLDRI-NH2
In the case of B18, the “EC50 group, cGMP in GTM-3 cells” value is not above 5 µM.

B19: JAL-1028 (peptide)
peptide: Octanoyl-[dA]F[dF]L[Hyp]LDRI-NH2
For the molecule B19, the “EC50 group, cGMP in GTM-3 cells” value is not above 5 µM.

B20: JAL-1016 (peptide)
peptide: [Occ]AFGL[Hyp][NMeL]DRI-NH2
modifications: not fully specified (residue 2); printed as Occ-ala-Phe-Gly-Leu-Hyp-Nml-Asp-Arg-Ile-
Take B20: the “EC50 group, cGMP in GTM-3 cells” value was not above 5 µM.

B21: JAL-1010 (peptide)
peptide: [Occ]AFSLPLDRI-NH2
modifications: not fully specified (residues 2, 4); printed as Occ-ala-Phe-ser-Leu-Pro-Leu-Asp-Arg-Ile-NH2
On to B21, for which the “EC50 group, cGMP in GTM-3 cells” value was not above 5 µM.

B22: JAL-1014 (peptide)
peptide: [Occ]AF[nle]LPLDRI-NH2
modifications: not fully specified (residue 2); printed as Occ-ala-Phe-nle-Leu-Pro-Leu-Asp-Arg-Ile-NH2; reading uncertain
As for B22, the “EC50 group, cGMP in GTM-3 cells” value was not above 5 µM.

B23: JAL-1000 (peptide)
peptide: [Occ]A[2Thi]GLPLDRI-NH2
modifications: not fully specified (residue 2); printed as Occ-ala-Thi-Gly-Leu-Pro-Leu-Asp-Arg-Ile-NH2
On to B23, for which the “EC50 group, cGMP in GTM-3 cells” value was not above 15 µM.

B24: JAL-0535 (peptide)
peptide: Hexanoyl-S[dA]FGLKLDRISS-NH2
With B24, the “EC50 group, cGMP in GTM-3 cells” value is not above 15 µM.

B25: JAL-1025 (peptide)
peptide: Octanoyl-[dA]F[dNle]L[Hyp]LDRI-NH2
For the molecule B25, the “EC50 group, cGMP in GTM-3 cells” value was not above 5 µM.

B26: JAL-1026 (peptide)
peptide: Octanoyl-[dA]F[dL]L[Hyp]LDRI-NH2
With B26, the “EC50 group, cGMP in GTM-3 cells” value was not above 5 µM.

B27: JAL-1027 (peptide)
peptide: Octanoyl-[dA]F[dNva]L[Hyp]LDRI-NH2
For the molecule B27, the “EC50 group, cGMP in GTM-3 cells” value was not above 5 µM.

B28: JAL-0992 (peptide)
peptide: [Occ]AFGLPLSRI-NH2
modifications: not fully specified (residue 2); printed as Occ-ala-Phe-Gly-Leu-Pro-Leu-Ser-Arg-Ile-NH2
Turning to B28, the “EC50 group, cGMP in GTM-3 cells” value is not above 15 µM.

B29: JAL-0980 (peptide)
peptide: [Occ]AFGL[Thz]LDRI-NH2
modifications: not fully specified (residue 2); printed as Occ-ala-Phe-Gly-Leu-Eaz-Leu-Asp-Arg-Ile-NH2
As for B29, the “EC50 group, cGMP in GTM-3 cells” value is not above 15 µM.

B30: JAL-0998 (peptide)
peptide: [Occ]AFG[hLeu]PLDRI-NH2
modifications: not fully specified (residue 2); printed as Occ-ala-Phe-Gly-Hle-Pro-Leu-Asp-Arg-Ile-NH2
Take B30: the “EC50 group, cGMP in GTM-3 cells” value is not above 15 µM.

B31: JAL-1022 (peptide)
peptide: Octanoyl-[Sni][NMeF][dNle]LPLDRI-NH2
Regarding B31, the “EC50 group, cGMP in GTM-3 cells” value is not above 5 µM.

B32: JAL-0996 (peptide)
peptide: [Occ]AFG[Nva]PLDRI-NH2
modifications: not fully specified (residue 2); printed as Occ-ala-Phe-Gly-Nva-Pro-Leu-Asp-Arg-Ile-NH2
Regarding B32, the “EC50 group, cGMP in GTM-3 cells” value is not above 15 µM.

B33: JAL-0995 (peptide)
peptide: [Occ]AFGIPLDRI-NH2
modifications: not fully specified (residue 2); printed as Occ-ala-Phe-Gly-Ile-Pro-Leu-Asp-Arg-Ile-NH2
Regarding B33, the “EC50 group, cGMP in GTM-3 cells” value is not above 15 µM.

B34: JAL-0536 (peptide)
peptide: Hexanoyl-A[dA]FGLKLDRISA-NH2
Turning to B34, the “EC50 group, cGMP in GTM-3 cells” value was not above 5 µM.
